According to patent publication US5912120A, “Cloning, expression and diagnosis of human cytochrome P450 2C19: the principal determinant of s-mephenytoin metabolism” (The United States of America as represented by the …, priority 1994, dated 1999):

What was measured:
Assay type in all cases: biochemical
[1] = Mephenytoin 4'-hydroxylase assay, recombinant human CYP2C yeast microsomes (Table III)
Method: (§1) Purified or recombinant yeast microsomes (10-50 pmol) were preincubated with dilauroylphosphatidylcholine (15 μg per 50 pmol P450), P450 reductase (500 U per 50 mol P450), and human cytochrome b5 (2:1 molar ratio when added). The reconstituted mixture was preincubated for 5 min at 37° C., and then placed on ice. A final concentration of 0.4 mM radiolabelled S- or R-mephenytoin (20.7 mCi/mM and 20.9 mCi/mMol) was added to 50 mM HEPES buffer (pH 7.4) containing 0.1 mM EDTA and 1.5 mM MgCl2 for recombinant 2C proteins. The mixture was then incubated at 37° with shaking for 3 min, and the reaction started with the addition of 2mM NADPH and terminated after 30 min with an equal volume of methanol. […] Reaction volumes were generally 0.25 ml except when the volume of recombinant purified cytochrome or yeast microsomes was greater than 50 μl. In these cases, the volume was increased to 0.5 ml to limit the volume of glycerol from the purified preparation to <4% of the final volume.

[2] = Mephenytoin 4'-hydroxylase assay, purified recombinant P450 2C in reconstituted system (Table IV); conditions: for stereospecificity of 4'-hydroxylation of mephenytoin: purified, reconstituted system (Table IV)
Method: Recombinant yeast microsomes were prepared from a 10-12 l culture, and recombinant P450s were purified by aminooctylsepharose chromatography as described by Iwasaki et al., J. Biol. Chem. 226:3380-3382 (1991). The Emulgen was then removed from protein by adsorption of the protein to a 4 g hydroxylapatite column (Hypatite C, Clarkson Chemical Company, Williamsport, Pa.) equilibrated with 10 mM potassium phosphate buffer (pH 7.2), 20% glycerol, 0.1 mM EDTA, and 0.1 mM DTT and washing the column with the same buffer until the absorbance at 280 nm returned to zero. The P450 was then eluted with […], and dialyzed overnight against 100 mM potassium phosphate buffer (pH 7.4, 20% glycerol and 0.1 mM EDTA. Absolute and CO difference spectra of purified P450s were determined in the same buffer but containing 0.2% Emulgen and 0.5% cholate.
Mephenytoin 4'-hydroxylase activity was measured by a modification of the radiometric HPLC assay described by Shimada et al., J. Biol. Chem. 261:909-921 (1986), as described below. Purified or recombinant yeast microsomes (10-50 pmol) were preincubated with dilauroylphosphatidylcholine (15 μg per 50 pmol P450), P450 reductase (500 U per […] P450), and human cytochrome b5 (2:1 molar ratio when added). The reconstituted mixture was preincubated for 5 min at 37° C., and then placed on ice. A final concentration of 0.4 mM radiolabelled S- or R-mephenytoin (20.7 mCi/mM and 20.9 mCi/mMol) was added to 50 mM HEPES buffer (pH 7.4) containing 0.1 mM EDTA and 1.5 mM MgCl2 for recombinant 2C proteins. The mixture was then incubated at 37° with shaking for 3 min, and the reaction started with the addition of 2mM NADPH and terminated after 30 min with an equal volume of methanol. Cytochrome b5 was not included in all CYP2C18 reactions, since it had no effect or produced a slight inhibition on the activity of this CYP protein. Reaction volumes were generally 0.25 ml except when the volume of recombinant purified cytochrome or yeast microsomes was greater than 50 μl. In these cases, the volume was increased to 0.5 ml to limit the volume of glycerol from the purified preparation to <4% of the final volume.
At the end of the incubation period, the reactions were terminated with an equal volume of methanol. The incubation mixture was centrifuged at 10,000 g for 10 min and an aliquot assayed directly using HPLC without extraction. Samples with particularly low activity were concentrated by lyophilization and redissolved in a small volume of methanol:water (1:1) before assay. The HPLC system consisted of a reverse phase C18 (10 μm) Versapak, 300 mm×4.1 mm column (Altech Associates, Deerfield, Ill.) using an isocratic solvent consisting of methanol:water (45:55) with a flow rate was kept of 1 ml/min for 25 min. Detection of radioactive peaks was accomplished using an on-line Flow-One radiochemical detector (Radiomatic Instruments Co., Tampa, Fla. Detection of the unlabeled 4'-hydroxymephenytoin authentic standard was performed using an on-line multiwavelength UV detector at both 211 and 230 nm.
Recombinant P450s were purified from yeast microsomes and assays performe

[3] = Mephenytoin 4'-hydroxylase assay, recombinant human CYP2C yeast microsomes (Table III); conditions: recombinant yeast microsomes + P450 reductase, phospholipid, cytochrome b5 2:1; 0.4 mM substrate, HEPES pH 7.4, 37° C. 30 min; means ± SE
Method: as §1

[4] = Tolbutamide hydroxylase assay, recombinant human CYP2C yeast microsomes (Table V); conditions: 1 mg yeast microsomal protein + purified P450 reductase (1,000 units)
Method: Tolbutamide hydroxylase activity was measured according to Knodell et al., J. Pharmacol. Exper. […] Yeast microsomes (1 mg protein) were preincubated with 300 pmol hamster P450 reductase in 0.2 ml of the incubation buffer (below) for 3 min at 37° C. The reaction was then placed on ice and incubated in 0.2 ml of 50 mM HEPES buffer (pH 7.4) containing 1.5 mM MgCl2, 0.1 mM EDTA in a final volume of 1 ml and 1 mM sodium tolbutamide. The reaction was initiated with 0.5 mM NADPH. Human liver microsomes (0.22 mg protein) were incubated without reductase. Incubations with reconstituted recombinant P450s contained 50 pmol purified P450 enzyme, 150 pmol P450 reductase, and 15 μg dilauroylphosphatidyl-choline, and were performed in 100 mM potassium phosphate buffer (pH 7.4). Reactions were terminated after 60 min at 37° C. by the addition of 50 μl of 4N HCl, followed by extraction with 3 ml of water-saturated ethyl acetate. The ethyl acetate extracts were dried under nitrogen at 40° C., the residue resolubilized in 200 μl methanol, and 4-hydroxytolbutamide then assayed using HPLC by injecting 50 μl of the solubilized extract onto a μBONDAPAK C18 column (4.6×300 mm) using 0.05% phosphoric acid, pH 2.6: acetonitrile (6:4, v/v) as the mobile phase with a flow rate of 1 ml/min. The column eluate was monitored at 230 nm and rates of product formation were determined from standard curves prepared by adding varying amounts of 4-hydroxytolbutamide to incubations conducted without NADPH. […] Samples were analyzed in triplicate.

[5] = purified P450, reconstituted system

B1: 2C9: recombinant human cytochrome P450 2C9, allele not specified in the text (protein, UniProt P11712 1-490, looked up)
Cytochrome P450 2C9: MDSLVVLVLCLSCLLLLSLWRQSSGRGKLPPGPTPLPVIGNILQIGIKDISKSLTNLSKVYGPVFTLYFGLKPIVVLHGYEAVKEALIDLGEEFSGRGIFPLAERANRGFGIVFSNGKKWKEIRRFSLMTLRNFGMGKRSIEDRVQEEARCLVEELRKTKASPCDPTFILGCAPCNVICSIIFHKRFDYKDQQFLNLMEKLNENIKILSSPWIQICNNFSPIIDYFPGTHNKLLKNVAFMKSYILEKVKEHQESMDMNNPQDFIDCFLMKMEKEKHNQPSEFTIESLENTAVDLFGAGTETTSTTLRYALLLLLKHPEVTAKVQEEIERVIGRNRSPCMQDRSHMPYTDAVVHEVQRYIDLLPTSLPHAVTCDIKFRNYLIPKGTTILISLTSVLHDNKEFPNPEMFDPHHFLDEGGNFKKSKYFMPFSAGKRICVGEALAGMELFLFLTSILQNFNLKSLVDPKNLDTTPVVNGFASVPPFYQLCFIPV
[1]; recombinant yeast microsomes
  rate of 4'-hydroxylation of S-mephenytoin: 0.02 nmol/min/nmol
[2]; S-mephenytoin 4'-hydroxylation
  turnover number higher than the activity of 2C9 purified from human liver: ~ 100 times
[2]
  stereospecificity of 4'-hydroxylation of mephenytoin: not stereospecific

B2: 2C9 Purified from Human Liver: cytochrome P450 2C9 purified from human liver microsomes (protein, UniProt P11712 1-490, looked up)
Cytochrome P450 2C9: B1 Cytochrome P450 2C9
[2]; [5]
  R/S Ratio: 1.6

B3: 2C18-Thr^385 (29c): recombinant human P450 2C18 allelic variant, clone 29c (Thr at 385), in yeast microsomes; residue 2 not stated in Table III (protein, UniProt P33260 26-490, looked up)
Cytochrome P450 2C18: RGRLPSGPTPLPIIGNILQLDVKDMSKSLTNFSKVYGPVFTVYFGLKPIVVLHGYEAVKEALIDHGEEFSGRGSFPVAEKVNKGLGILFSNGKRWKEIRRFCLMTLRNFGMGKRSIEDRVQEEARCLVEELRKTNASPCDPTFILGCAPCNVICSVIFHDRFDYKDQRFLNLMEKFNENLRILSSPWIQVCNNFPALIDYLPGSHNKIAENFAYIKSYVLERIKEHQESLDMNSARDFIDCFLIKMEQEKHNQQSEFTVESLIATVTDMFGAGTETTSTTLRYGLLLLLKYPEVTAKVQEEIECVVGRNRSPCMQDRSHMPYTDAVVHEIQRYIDLLPTNLPHAVTCDVKFKNYLIPKGTTIITSLTSVLHNDKEFPNPEMFDPGHFLDKSGNFKKSDYFMPFSAGKRMCMGEGLARMELFLFLTTILQNFNLKSQVDPKDIDITPIANAFGRVPPLYQLCFIPV
[1]; recombinant yeast microsomes + P450 reductase, phospholipid, cytochrome b5 2:1, 0.4 mM substrate, HEPES pH 7.4, 37° C. 30 min, means ± SE
  Mephenytoin 4'-Hydroxylase Activity S: 0.042 ± 0.004 nmol/min/nmol P450
[1]; recombinant yeast microsomes, no b5
  Mephenytoin 4'-Hydroxylase Activity S: 0.034 ± 0.008 nmol/min/nmol P450
[1]; recombinant yeast microsomes, with cytochrome b5
  R/S Ratio: 1.3
[3]
  Mephenytoin 4'-Hydroxylase Activity R: 0.054 ± 0.003 nmol/min/nmol P450

B4: 2C18-Asp^2 Thr^385 (29c-1a): recombinant human P450 2C18, clone 29c with correct Asp^2, Thr^385 (protein, UniProt P33260 26-490, looked up)
Cytochrome P450 2C18: B3 Cytochrome P450 2C18
[2]; [5]
  R/S Ratio: 1.3
[2]; purified P450, reconstituted system, triplicate, means ± SE, blank not subtracted
  Mephenytoin 4'-Hydroxylase Activity S: 0.116 ± 0.010 nmol/min/nmol P450
[2]; triplicate, means ± SE, blank not subtracted
  Mephenytoin 4'-Hydroxylase Activity R: 0.147 ± 0.025 nmol/min/nmol P450
[4]; adjusted for P450 content
  Tolbutamide Hydroxylase Activity (nmol/min/nmol P450): 0.19 ± 0.02 nmol/min/nmol P450
[4]; means ±SE
  Tolbutamide Hydroxylase Activity (nmol/min/mg protein): 9.3 ± 0.7 nmol/min/mg protein

B5: 2C18: recombinant human cytochrome P450 2C18, variant not specified in the text (protein, UniProt P33260 26-490, looked up)
Cytochrome P450 2C18: B3 Cytochrome P450 2C18
[2]
  stereospecificity of 4'-hydroxylation of mephenytoin: stereoselective for the R-enantiomer

B6: 2C8 Purified from Human Liver: cytochrome P450 2C8 purified from human liver microsomes (protein, UniProt P10632 1-490, looked up)
Cytochrome P450 2C8: MEPFVVLVLCLSFMLLFSLWRQSCRRRKLPPGPTPLPIIGNMLQIDVKDICKSFTNFSKVYGPVFTVYFGMNPIVVFHGYEAVKEALIDNGEEFSGRGNSPISQRITKGLGIISSNGKRWKEIRRFSLTTLRNFGMGKRSIEDRVQEEAHCLVEELRKTKASPCDPTFILGCAPCNVICSVVFQKRFDYKDQNFLTLMKRFNENFRILNSPWIQVCNNFPLLIDCFPGTHNKVLKNVALTRSYIREKVKEHQASLDVNNPRDFIDCFLIKMEQEKDNQKSEFNIENLVGTVADLFVAGTETTSTTLRYGLLLLLKHPEVTAKVQEEIDHVIGRHRSPCMQDRSHMPYTDAVVHEIQRYSDLVPTGVPHAVTTDTKFRNYLIPKGTTIMALLTSVLHDDKEFPNPNIFDPGHFLDKNGNFKKSDYFMPFSAGKRICAGEGLARMELFLFLTTILQNFNLKSVDDLKNLNTTAVTKGIVSLPPSYQICFIPV
[2]; [5]
  R/S Ratio: 1.6
